Results as given in PMC9240080 (Nature Communications, 2022).

Legend:
Assay in all cases: ELISA
Details in all cases: both partners purified
[1] = biological target: BtKY72-CoV RBD-His8-SpyTag003 (Bat coronavirus BtKY72, heterogeneous N-linked glycosylation)
[2] = biological target: Yunnan2011 (Yun11)-CoV RBD-His8-SpyTag003 (Bat coronavirus Cp/Yunnan2011, heterogeneous N-linked glycosylation)
[3] = biological target: BM48-31-CoV RBD-His8-SpyTag003 (Bat coronavirus BM48-31, heterogeneous N-linked glycosylation)
[4] = biological target: Rf1-CoV RBD-His8-SpyTag003 (Bat SARS-like coronavirus Rf1, heterogeneous N-linked glycosylation)
[5] = biological target: RmYN02-CoV RBD-His8-SpyTag003 (Bat coronavirus RmYN02, heterogeneous N-linked glycosylation)
[6] = biological target: RaTG13-CoV RBD-His8-SpyTag003 (Bat coronavirus RaTG13, heterogeneous N-linked glycosylation)
[7] = biological target: SHC014-CoV RBD-His8-SpyTag003 (Bat SARS-like coronavirus RsSHC014, heterogeneous N-linked glycosylation)
[8] = biological target: WIV1-CoV RBD-His8-SpyTag003 (Bat SARS-like coronavirus WIV1, heterogeneous N-linked glycosylation)
[9] = biological target: Rs4081-CoV RBD-His8-SpyTag003 (Bat SARS-like coronavirus Rs4081, heterogeneous N-linked glycosylation)
[10] = biological target: pangolin17 (pang17)-CoV RBD-His8-SpyTag003 (Pangolin coronavirus pang17, heterogeneous N-linked glycosylation)

Measured: binding result

B1: EY6A (antibody, V domains shown)
VH: EVQLVESGGGVVQPGRSLRLSCAASAFTFSSYDMHWVRQAPGKGLEWVAVISYDGSNKYYADSVKGRFTISRDNSKNTLYLQMNSLRAEDTAVYYCAKDGGKLWVYYFDYWGQGTLVTVSS
VL: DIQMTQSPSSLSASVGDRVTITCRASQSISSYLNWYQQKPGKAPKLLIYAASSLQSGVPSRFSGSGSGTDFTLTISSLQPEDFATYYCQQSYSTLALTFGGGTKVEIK
binds: all assays above
